Experimental findings from patent US20240376185A1 (SMIVET B V, published 2024) are described below.

The target in test [1] is T1, dog serum albumin (dog, UniProt P49822 25-608).
T1 construct: mature; also called dog Alb; Canine albumin
In words: ELISA, E. coli supernatant.

The target in test [2] is T2, human serum albumin (human, UniProt P02768 25-609).
T2 construct: mature; also called human Alb
In words: ELISA, E. coli supernatant. (ELISA stands for enzyme-linked immunosorbent assay.)

Test [3] addresses T3, horse serum albumin (horse, UniProt P35747 25-607).
T3 construct: mature; also called horse Alb; Equine albumin
In words: ELISA, coated albumin, E. coli supernatant. Note: test concentration or dose not given here.

Test [4] deals with T1, dog serum albumin. In words: ELISA, coated albumin, E. coli supernatant. Note: test concentration or dose not given here.
Test [5] deals with T2, human serum albumin. The experiment in a line: ELISA, coated albumin, E. coli supernatant. Note: test concentration or dose not given here.
Test [6] addresses T2, human serum albumin. The experiment in a line: ELISA, coated albumin.
Test [7] has as its target T4, sheep serum albumin (sheep, UniProt P14639 25-607).
T4 construct: mature; also called sheep Alb
The experiment in a line: ELISA, coated albumin.

The target in test [8] is T5, bovine serum albumin (bovine, UniProt P02769 25-607).
T5 construct: mature; also called bovine Alb
T5 sequence (P02769 25-607): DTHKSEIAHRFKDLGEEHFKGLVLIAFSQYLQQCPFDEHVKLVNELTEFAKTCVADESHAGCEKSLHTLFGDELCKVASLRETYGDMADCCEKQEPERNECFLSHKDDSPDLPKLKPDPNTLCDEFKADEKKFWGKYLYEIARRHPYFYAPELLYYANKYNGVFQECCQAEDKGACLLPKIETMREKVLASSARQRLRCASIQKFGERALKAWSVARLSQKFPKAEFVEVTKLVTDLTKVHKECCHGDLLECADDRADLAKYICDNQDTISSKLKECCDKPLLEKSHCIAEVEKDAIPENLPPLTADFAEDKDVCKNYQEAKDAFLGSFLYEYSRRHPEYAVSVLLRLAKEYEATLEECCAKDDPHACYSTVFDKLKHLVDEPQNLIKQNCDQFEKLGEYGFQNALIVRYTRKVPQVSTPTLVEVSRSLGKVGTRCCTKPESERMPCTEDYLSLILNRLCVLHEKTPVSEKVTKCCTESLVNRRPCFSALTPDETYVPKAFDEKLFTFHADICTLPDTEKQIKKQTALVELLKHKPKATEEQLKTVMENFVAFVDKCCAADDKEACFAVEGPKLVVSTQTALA
The experiment in a line: ELISA, coated albumin.

Test [9] deals with T6, chicken ovalbumin (chicken, UniProt P01012 2-386).
T6 construct: mature; also called chicken Alb
T6 sequence (looked up): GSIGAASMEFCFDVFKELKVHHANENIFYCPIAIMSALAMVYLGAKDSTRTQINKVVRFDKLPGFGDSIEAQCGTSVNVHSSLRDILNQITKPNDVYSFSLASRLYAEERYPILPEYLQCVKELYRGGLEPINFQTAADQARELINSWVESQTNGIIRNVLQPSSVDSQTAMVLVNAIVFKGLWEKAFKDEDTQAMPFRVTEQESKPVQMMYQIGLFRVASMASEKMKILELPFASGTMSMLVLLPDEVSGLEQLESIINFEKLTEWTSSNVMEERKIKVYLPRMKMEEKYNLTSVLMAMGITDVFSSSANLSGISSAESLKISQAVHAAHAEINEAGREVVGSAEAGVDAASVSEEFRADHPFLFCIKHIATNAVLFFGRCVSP
The experiment in a line: ELISA, coated albumin.

T1 sequence (P49822 25-608): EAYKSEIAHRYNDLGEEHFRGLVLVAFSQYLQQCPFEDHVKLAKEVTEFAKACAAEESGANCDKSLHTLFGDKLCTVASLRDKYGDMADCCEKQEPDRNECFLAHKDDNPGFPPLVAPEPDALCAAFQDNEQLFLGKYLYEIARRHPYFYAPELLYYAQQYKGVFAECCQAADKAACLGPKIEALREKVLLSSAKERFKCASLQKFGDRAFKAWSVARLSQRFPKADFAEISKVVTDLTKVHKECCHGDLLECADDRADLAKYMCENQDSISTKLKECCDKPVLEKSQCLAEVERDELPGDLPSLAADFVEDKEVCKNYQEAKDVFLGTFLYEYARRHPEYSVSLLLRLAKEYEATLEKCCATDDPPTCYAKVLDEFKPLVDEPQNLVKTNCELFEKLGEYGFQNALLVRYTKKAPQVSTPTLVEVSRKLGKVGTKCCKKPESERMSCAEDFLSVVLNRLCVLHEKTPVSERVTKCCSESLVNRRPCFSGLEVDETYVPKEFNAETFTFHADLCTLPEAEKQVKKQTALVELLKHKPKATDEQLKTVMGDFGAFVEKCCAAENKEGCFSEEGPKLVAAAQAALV
T4 sequence (P14639 25-607): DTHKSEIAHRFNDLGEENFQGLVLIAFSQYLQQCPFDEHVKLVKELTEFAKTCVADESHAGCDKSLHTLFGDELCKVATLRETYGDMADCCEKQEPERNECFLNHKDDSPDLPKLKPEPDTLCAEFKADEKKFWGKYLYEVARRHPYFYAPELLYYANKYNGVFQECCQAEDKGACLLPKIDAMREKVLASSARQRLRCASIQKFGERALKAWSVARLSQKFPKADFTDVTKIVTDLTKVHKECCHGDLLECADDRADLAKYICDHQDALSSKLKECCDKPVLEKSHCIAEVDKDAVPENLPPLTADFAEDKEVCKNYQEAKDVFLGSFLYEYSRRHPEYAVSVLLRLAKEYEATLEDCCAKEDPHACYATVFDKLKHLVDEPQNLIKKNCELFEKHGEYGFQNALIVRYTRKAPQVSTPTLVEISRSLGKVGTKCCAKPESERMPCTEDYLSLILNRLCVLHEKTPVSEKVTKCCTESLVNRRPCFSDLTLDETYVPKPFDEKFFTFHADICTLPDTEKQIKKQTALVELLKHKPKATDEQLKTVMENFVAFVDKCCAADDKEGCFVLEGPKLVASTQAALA
T3 sequence (P35747 25-607): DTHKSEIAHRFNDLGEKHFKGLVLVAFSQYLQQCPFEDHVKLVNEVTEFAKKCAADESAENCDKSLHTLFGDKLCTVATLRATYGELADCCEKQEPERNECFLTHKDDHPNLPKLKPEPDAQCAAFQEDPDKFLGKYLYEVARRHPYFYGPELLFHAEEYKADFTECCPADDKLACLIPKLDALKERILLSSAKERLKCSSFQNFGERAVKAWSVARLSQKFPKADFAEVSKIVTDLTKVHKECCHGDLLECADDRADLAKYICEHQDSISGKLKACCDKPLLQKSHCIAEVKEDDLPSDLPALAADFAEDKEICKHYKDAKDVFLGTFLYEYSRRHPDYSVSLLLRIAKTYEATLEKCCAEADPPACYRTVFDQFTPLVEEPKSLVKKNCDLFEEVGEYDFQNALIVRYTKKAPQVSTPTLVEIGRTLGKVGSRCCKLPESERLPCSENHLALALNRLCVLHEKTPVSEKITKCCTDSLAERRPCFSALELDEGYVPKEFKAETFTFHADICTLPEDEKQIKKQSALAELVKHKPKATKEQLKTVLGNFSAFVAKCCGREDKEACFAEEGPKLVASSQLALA

B1: SVA07 (VHH, not shown: large carriers)
VHH: QVQLQQSGGGLVQAGDSLRLSCAASGRAFNYYTMGWFRQAPGKEREFVAKIYWDGGSTIYADSVKGRFTISIDNAKNTVYLQMNSLKPEDTAVYYCAADPSFYPFRPKYWGQGTQVTVSS
For B1, the binding result in test [1] and in [2] was “no binding” in each case. Besides, the “absorbance at 450 nm” value in test [3] worked out at 1.46 A450; in test [4], 0.059 A450; in test [5], 0.062 A450.

B2: SVA06L (VHH)
VHH: QVQLQESGGRLVQAEDSLRLSCAASGRTFVSYDMGWFRQAPGKEREFVAAINWRGYTTDYVDSVKGRFFISRDIAKSTVYLQMNNLKPEDTAVYYCAARQMSGSSRYSPPGRVGYDFWGQGTQVTVSS
notes: yeast-produced
In the case of B2, the binding result in test [6], in test [7], in [8] and in test [9] was “no binding (tested: 1 µg/ml)” throughout.
